Measured values published in article PMC13649778, “Unraveling single-molecule reactions via multiplexed in-situ DNA sequencing”.

B1: CAPcons library member CAPcons_T (top 5A; table letter taken as bottom-strand base) (dsDNA)
DNA 1: GGCAGTGAGCTCTACGCAATAAATATGATCTAGATCACATTTTAGGCAC
DNA 2: GTGCCTAAAATGTGATCTAGATCATATTTATTGCGTAGAGCTCACTGCC
B2: CAPcons library member CAPcons_C (consensus, top 5G) (dsDNA)
DNA 1: GGCAGTGAGCTCTACGCAATAAATGTGATCTAGATCACATTTTAGGCAC
DNA 2: GTGCCTAAAATGTGATCTAGATCACATTTATTGCGTAGAGCTCACTGCC
B3: CAPcons library member CAPcons_G (top 5C) (dsDNA)
DNA 1: GGCAGTGAGCTCTACGCAATAAATCTGATCTAGATCACATTTTAGGCAC
DNA 2: GTGCCTAAAATGTGATCTAGATCAGATTTATTGCGTAGAGCTCACTGCC
B4: CAPcons library member CAPcons_A (top 5T; table letter taken as bottom-strand base) (dsDNA)
DNA 1: GGCAGTGAGCTCTACGCAATAAATTTGATCTAGATCACATTTTAGGCAC
DNA 2: GTGCCTAAAATGTGATCTAGATCAAATTTATTGCGTAGAGCTCACTGCC
B5: CAPcons (consensus, pure; CAPcons_C, top 5G) (dsDNA)
DNA 1: GGCAGTGAGCTCTACGCAATAAATGTGATCTAGATCACATTTTAGGCAC
DNA 2: GTGCCTAAAATGTGATCTAGATCACATTTATTGCGTAGAGCTCACTGCC
B6: CAPcons position 5 C:G variant (pure; CAPcons_G) (dsDNA)
DNA 1: GGCAGTGAGCTCTACGCAATAAATCTGATCTAGATCACATTTTAGGCAC
DNA 2: GTGCCTAAAATGTGATCTAGATCAGATTTATTGCGTAGAGCTCACTGCC

What follows are binders tested against T1, Alexa647-CAP (CAP-(Cys17;Ser178), catabolite activator protein) (Escherichia coli, UniProt P0ACJ8 1-210, H18C;C179S) (assay: single-molecule fluorescence (SPIN-Seq library); 0.2 mM cAMP, 10 mM Mg2+; 40 mM Tris pH 8, 100 mM KCl, 10 mM MgCl2, 5% glycerol, 0.2 mM cAMP, 1 mM TROLOX, glucose oxidase/catalase; 1.25 nM (pure) or 2.5 nM (library) Alexa647-CAP; temperature not stated). Settings: protein: recombinant; tags: His6; Alexa647 maleimide (40% labelled); chain copies: 2; label: Cy3B at top position 11; 5' biotin on bottom strand; blunt.

Point of comparison: B3, Kd 20.1 ± 0.9 nM. Against it:
- B1 — within 1.5-fold, 24.4 ± 0.8 nM
- B2 — 1.9-fold lower, 10.6 ± 0.6 nM
- B4 — within 1.5-fold, 29.1 ± 1.6 nM

These binders were tested against T1, Alexa647-CAP (CAP-(Cys17;Ser178), …) (assay: single-molecule fluorescence (koff/kon); 0.2 mM cAMP, 10 mM Mg2+; 40 mM Tris pH 8, 100 mM KCl, 10 mM MgCl2, 5% glycerol, 0.2 mM cAMP, 1 mM TROLOX, glucose oxidase/catalase; 1.25 nM (pure) or 2.5 nM (library) Alexa647-CAP; temperature not stated). Settings: protein: recombinant; tags: His6; Alexa647 maleimide (40% labelled); chain copies: 2; label: Cy3B at top position 13; 5' biotin on bottom strand; blunt.

Point of comparison: B5, Kd 9.1 ± 0.6 nM. Against it:
- B6 — 2.2-fold higher, 20.2 ± 1.3 nM
